{"source": "paper PMC4456301", "about": "(Structure (London, England : 1993), 2015)", "proteins": {"B1": {"name": "R135_50, a variant of Mimivirus R135 lacking the first 50 amino acids (domain or fragment)", "chain": "TKDNLTGDIVIIGAGAAGSLLAHYLARFSNMKIILLEAGHSHFNDPVVTDPMGFFGKYNPPNENISMSQNPSYSWQGAQEPNTGAYGNRPIIAHGMGFGGSTMINRLNLVVGGRTVFDNDWPVGWKYDDVKNYFRRVLVDINPVRDNTKASITSVALDALRIIAEQQIASGEPVDFLLNKATGNVPNVEKTTPDAVPLNLNDYEGVNSVVAFSSFYMGVNQLSDGNYIRKYAGNTYLNRNYVDENGRGIGKFSGLRVVSDAVVDRIIFKGNRAVGVNYIDREGIMHYVKVNKEVVVTSGAFYTPTILQRSGIGDFTYLSSIGVKNLVYNNPLVGTGLKNHYSPVTITRVHGEPSEVSRFLSNMAANPTNMGFKGLAELGFHRLDPNKPANANTVTYRKYQLMMTAGVGIPAEQQYLSGLSPSSNNLFTLIADDIRFAPEGYIKIGTPNIPRDVPKIFFNTFVTYTPTSAPADQQWPIAQKTLAPLISALLGYDIIYQTLMSMNQTARDSGFQVSLEMVYPLNDLIYKLHNGLATYGANWWHYFVPTLVGDDTPAGREFADTLSKLSYYPRVGAHLDSHQGCSCSIGRTVDSNLKVIGTQNVRVADLSAAAFPPGGNTWATASMIGARAVDLILGFPYLRDLPVNDVPILNVN"}}, "molecular_target": "the molecule itself", "assay": "AUC", "data": [{"protein": "B1", "values": [{"measurement": "stoichiometry N", "value": 2}]}]}
